Measurements from paper PMC2796240.

System: CCCCC(=O)Oc1ccc([N+](=O)[O-])cc1
Test: purified protein
Conditions: pH 7.5, 14.5 mM Tris-HCl, 0.75% glycerol, 0.5% Triton X, 1.1 µM enzyme

“F. solani cutinase (Fusarium vanettenii)” showed a Km of 1.48 ± 0.56 µM and a kcat/Km of 10200 ± 6670 M⁻¹ s⁻¹.
